Data published in paper PMC12102438.

These substances were tested against KHK4083 (assay: BLI). Conditions: 100 nmol/L KHK4083; parent: est. 1.0; read off a plot.

ratio to parent | Substance
28 | Recombinant OX40-His protein (human OX40) (from UniProt P43489) D117A
6.4 | Recombinant OX40-His protein (human OX40) (from UniProt P43489) S118A
0.8 | Recombinant OX40-His protein (human OX40) (from UniProt P43489) D34A
21 | Recombinant OX40-His protein (human OX40) (from UniProt P43489) Y119A
1.6 | Recombinant OX40-His protein (human OX40) (from UniProt P43489) Y36A
0.6 | Recombinant OX40-His protein (human OX40) (from UniProt P43489) T35A

More lines, now with the values behind:

Substance | ratio to parent
Recombinant OX40-His protein (human OX40) (from UniProt P43489) H30A | 0.6
Recombinant OX40-His protein (human OX40) (from UniProt P43489) K120A | 16
Recombinant OX40-His protein (human OX40) (from UniProt P43489) K82A | 15
Recombinant OX40-His protein (human OX40) (from UniProt P43489) D40A | 2
Recombinant OX40-His protein (human OX40) (from UniProt P43489) S38A | 1
